In general, koff refers to a measure of how fast the partners let go of each other. What is called Kd is the equilibrium constant for the complex coming apart.

The target of assay [1] is T1, biotinylated HSL1 ectodomain with Avi-tag (Arabidopsis, UniProt Q9SGP2 17-618, biotin on the Avi-tag (BirA)).
T1 chain: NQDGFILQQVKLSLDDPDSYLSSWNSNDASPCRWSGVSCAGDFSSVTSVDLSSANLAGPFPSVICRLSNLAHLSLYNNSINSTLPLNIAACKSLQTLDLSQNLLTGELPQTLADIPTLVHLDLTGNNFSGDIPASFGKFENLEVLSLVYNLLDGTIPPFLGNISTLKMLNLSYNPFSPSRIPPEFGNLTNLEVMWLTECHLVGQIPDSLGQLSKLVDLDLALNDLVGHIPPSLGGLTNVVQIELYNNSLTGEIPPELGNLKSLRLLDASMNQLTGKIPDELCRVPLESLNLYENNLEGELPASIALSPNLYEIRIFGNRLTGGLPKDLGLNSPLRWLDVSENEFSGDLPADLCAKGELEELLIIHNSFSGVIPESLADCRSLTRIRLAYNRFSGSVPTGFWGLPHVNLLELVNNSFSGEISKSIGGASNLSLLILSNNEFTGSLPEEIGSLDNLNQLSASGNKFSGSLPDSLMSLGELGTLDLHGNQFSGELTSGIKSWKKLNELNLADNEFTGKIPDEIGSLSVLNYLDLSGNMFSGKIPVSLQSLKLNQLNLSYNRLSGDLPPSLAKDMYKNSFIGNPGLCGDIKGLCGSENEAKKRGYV
In words: GCI, with IDL3.

Assay [2] addresses T2, HSL1 (HAESA-LIKE 1) ectodomain (Arabidopsis, UniProt Q9SGP2 17-618).
T2 chain: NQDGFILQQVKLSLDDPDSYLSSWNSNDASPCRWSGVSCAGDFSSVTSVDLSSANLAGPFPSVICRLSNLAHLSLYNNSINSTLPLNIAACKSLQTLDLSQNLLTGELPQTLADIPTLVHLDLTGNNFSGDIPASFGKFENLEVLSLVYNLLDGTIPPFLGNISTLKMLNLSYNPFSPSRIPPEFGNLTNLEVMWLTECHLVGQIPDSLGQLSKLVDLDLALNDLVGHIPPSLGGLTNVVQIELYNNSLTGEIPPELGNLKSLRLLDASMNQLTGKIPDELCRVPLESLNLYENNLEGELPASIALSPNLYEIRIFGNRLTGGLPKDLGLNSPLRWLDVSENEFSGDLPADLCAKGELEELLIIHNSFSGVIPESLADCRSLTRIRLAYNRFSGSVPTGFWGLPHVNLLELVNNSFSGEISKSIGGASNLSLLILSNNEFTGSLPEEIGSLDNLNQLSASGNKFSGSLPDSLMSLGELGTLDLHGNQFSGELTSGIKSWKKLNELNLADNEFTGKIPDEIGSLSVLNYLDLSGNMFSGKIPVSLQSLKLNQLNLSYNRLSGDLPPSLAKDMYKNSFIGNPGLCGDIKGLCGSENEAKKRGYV
In words: ITC; with IDL2. (ITC needs no label: the signal is the heat of the interaction.)

Assay [3] concerns the target T1, biotinylated HSL1 ectodomain with …. In words: in presence of IDL3.
Assay [4] has the same target. In words: GCI, with IDL4.
The target is the same in assay [5]. In words: in presence of IDL4.
The target in assay [6] is T2, HSL1 (HAESA-LIKE 1) ectodomain. In words: ITC; with IDL1.
For assay [7], the target named is T1, biotinylated HSL1 ectodomain with …. Kind of assay: GCI, with IDL1.
For assay [8] the target is unchanged. In words: in presence of IDL1.
Assay [9] has the same target. Kind of assay: in presence of IDL1.
The target is the same in assay [10]. Kind of assay: in presence of IDL2.
The target is the same in assay [11]. In words: in presence of IDL2.
The target in assay [12] is T2, HSL1 (HAESA-LIKE 1) ectodomain. In words: ITC; with IDL4.
Assay [13] has the same target. Kind of assay: ITC; with IDA.
Assay [14] addresses T1, biotinylated HSL1 ectodomain with …. Kind of assay: GCI, with IDL1.
Assay [15] has the same target. Kind of assay: GCI, with IDL2.
The target is the same in assay [16]. In words: in presence of IDL4.
Assay [17] has as its target T2, HSL1 (HAESA-LIKE 1) ectodomain. In words: ITC; with IDL3.
The target in assay [18] is T1, biotinylated HSL1 ectodomain with …. Kind of assay: GCI, with IDA.
The target is the same in assay [19]. In words: in presence of IDL3.
For assay [20], the target named is T2, HSL1 (HAESA-LIKE 1) ectodomain. In words: ITC; with CLE9^N116S.
In assay [21] the target is T1, biotinylated HSL1 ectodomain with …. Kind of assay: GCI, with IDL3.
The target in assay [22] is T3, BAM1 (BARELY ANY MERISTEM 1) ectodomain (Arabidopsis, UniProt O49545 20-637).
T3 construct: BAM1 LRR receptor kinase ectodomain, Arabidopsis, residues 20-637, AT5G65700; codon optimised; secreted with an azurocidin or Drosophila BiP signal peptide; also called BAM1 extracellular domain; BAM1 LRR ectodomain; source: Trichoplusia ni Tnao38 cells (baculovirus), secreted, purified (Ni2+, Strep-Tactin, TEV cleavage, second Ni2+, SEC)
T3 sequence (looked up): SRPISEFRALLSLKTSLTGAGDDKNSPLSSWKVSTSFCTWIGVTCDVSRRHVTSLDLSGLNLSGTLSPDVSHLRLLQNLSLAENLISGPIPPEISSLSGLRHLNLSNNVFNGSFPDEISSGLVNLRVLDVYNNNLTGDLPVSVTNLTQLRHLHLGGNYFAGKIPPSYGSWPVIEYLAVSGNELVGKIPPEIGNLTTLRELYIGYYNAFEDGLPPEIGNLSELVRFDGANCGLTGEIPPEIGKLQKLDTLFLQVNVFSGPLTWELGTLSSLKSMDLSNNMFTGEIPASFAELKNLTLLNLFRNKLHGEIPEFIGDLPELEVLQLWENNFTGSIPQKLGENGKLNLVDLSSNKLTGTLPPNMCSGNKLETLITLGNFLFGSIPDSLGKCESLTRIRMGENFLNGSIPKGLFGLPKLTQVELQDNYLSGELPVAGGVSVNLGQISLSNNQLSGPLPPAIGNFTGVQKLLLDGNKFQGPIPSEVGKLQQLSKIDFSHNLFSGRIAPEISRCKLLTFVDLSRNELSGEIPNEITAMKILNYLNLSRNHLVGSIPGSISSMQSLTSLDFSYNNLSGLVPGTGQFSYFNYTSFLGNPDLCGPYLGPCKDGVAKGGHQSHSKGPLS
In words: ITC; peptide (75 to 600 µM) injected into 10 to 30 µM HSL1 or BAM1 ectodomain in the cell; 25 °C; 20 mM sodium citrate pH 5.0, 150 mM NaCl; N fitted to 1. The settings on record: both partners purified.

Assay [23] addresses T4, SERK1 (SOMATIC EMBRYOGENESIS RECEPTOR KINASE 1) ectodomain (Arabidopsis, UniProt Q94AG2 24-213).
T4 construct: SERK1 ectodomain, Arabidopsis, residues 24-213, AT1G71830; codon optimised; secreted with an azurocidin or Drosophila BiP signal peptide; also called co-receptor SERK1; source: Trichoplusia ni Tnao38 cells (baculovirus), secreted, purified (Ni2+, Strep-Tactin, TEV cleavage, second Ni2+, SEC)
T4 sequence (looked up): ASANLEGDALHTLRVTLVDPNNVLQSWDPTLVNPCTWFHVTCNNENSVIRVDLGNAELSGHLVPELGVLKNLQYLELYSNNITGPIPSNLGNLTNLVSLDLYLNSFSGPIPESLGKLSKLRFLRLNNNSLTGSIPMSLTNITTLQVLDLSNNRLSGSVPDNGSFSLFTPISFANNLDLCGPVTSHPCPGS
Kind of assay: crystal structure; HSL1-CLE9-SERK1, mixed 1:1:1.5; 0.2 M K/Na tartrate, 20% PEG 3350; 2.87 Å. The settings on record: both partners purified.

Assay [24] deals with T2, HSL1 (HAESA-LIKE 1) ectodomain. Kind of assay: ITC.
The target in assay [25] is T5, HSL1 (HAESA-LIKE 1) ectodomain (Arabidopsis, UniProt Q9SGP2 17-618).
T5 construct: HSL1 LRR receptor kinase ectodomain, Arabidopsis, residues 17-618, AT1G28440; codon optimised; secreted with an azurocidin or Drosophila BiP signal peptide; also called isolated HSL1 ectodomain; LRR-RK HSL1; source: Trichoplusia ni Tnao38 cells (baculovirus), secreted, purified (Ni2+, Strep-Tactin, TEV cleavage, second Ni2+, SEC)
T5 sequence (looked up): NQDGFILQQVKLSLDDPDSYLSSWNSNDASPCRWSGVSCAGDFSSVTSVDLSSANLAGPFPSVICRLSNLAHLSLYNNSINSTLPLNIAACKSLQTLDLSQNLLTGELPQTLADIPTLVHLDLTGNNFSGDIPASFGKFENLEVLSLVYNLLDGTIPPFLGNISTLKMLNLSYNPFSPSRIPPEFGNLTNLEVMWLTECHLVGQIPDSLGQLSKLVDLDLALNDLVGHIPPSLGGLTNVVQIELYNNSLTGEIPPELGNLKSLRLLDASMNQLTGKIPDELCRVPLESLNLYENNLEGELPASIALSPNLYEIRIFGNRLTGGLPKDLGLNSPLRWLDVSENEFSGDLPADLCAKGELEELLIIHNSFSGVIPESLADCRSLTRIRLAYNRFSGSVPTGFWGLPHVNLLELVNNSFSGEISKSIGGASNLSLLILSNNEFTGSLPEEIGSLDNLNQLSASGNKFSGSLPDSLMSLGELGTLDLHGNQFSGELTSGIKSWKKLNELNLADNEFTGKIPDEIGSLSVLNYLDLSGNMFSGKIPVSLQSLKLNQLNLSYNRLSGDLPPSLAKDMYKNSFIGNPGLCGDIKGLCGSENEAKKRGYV
In words: ITC; peptide (75 to 600 µM) injected into 10 to 30 µM HSL1 or BAM1 ectodomain in the cell; 25 °C; 20 mM sodium citrate pH 5.0, 150 mM NaCl; N fitted to 1. The note with it: both partners purified.

Square brackets hold non-standard residues; d marks the D form. Ends that are not written are not given here. Hyp = O=C(O)[C@@H]1C[C@@H](O)CN1

B1: SERK1 (SOMATIC EMBRYOGENESIS RECEPTOR KINASE 1) ectodomain (domain or fragment)
chain: ASANLEGDALHTLRVTLVDPNNVLQSWDPTLVNPCTWFHVTCNNENSVIRVDLGNAELSGHLVPELGVLKNLQYLELYSNNITGPIPSNLGNLTNLVSLDLYLNSFSGPIPESLGKLSKLRFLRLNNNSLTGSIPMSLTNITTLQVLDLSNNRLSGSVPDNGSFSLFTPISFANNLDLCGPVTSHPCPGS
Consider B1, for which the koff turned out to be 3e-05 s⁻¹ in [1]; 0.00013 s⁻¹ in assay [5]; 0.00018 s⁻¹ in assay [7]; 0.00018 s⁻¹ in assay [8]; 0.00011 s⁻¹ in assay [11]; 0.00026 s⁻¹ in assay [19]. The Kd in assay [2] amounted to 16 nM; in [3] it was 8.5 nM; in assay [4], 12.5 nM; in [6], 44 nM; in assay [9], 12.5 nM; in [10] it was 1.5 nM. The Kd in assay [12] was determined as 49 nM; in assay [13], 22 nM; in assay [14], 12.5 nM; in [15], 9 nM; in assay [16] it was 10.7 nM; in assay [17], 26 nM. Besides, the Kd in [18] was 9 nM; in [20] it was 170 nM; in [21], 1 nM.

B2: CLE9 mature peptide (peptide, UniProt Q9FZE4 109-120, looked up)
peptide: RLV[Hyp]SG[Hyp]NPLHN
notes: CLE9 mature dodecapeptide, AT1G26600; printed residues R109, L110, V111, Hyp112, Ser113, Hyp115, Asn116; also called wild-type CLE9 peptide
As to B2, the dissociation constant (Kd) in assay [22] was 100 nM. The binding result in [23] is “binds”.

B3: CLE9^N116S peptide (peptide, UniProt Q9FZE4 109-120, looked up)
peptide: RLVPSGPSPLHN
notes: CLE9 mature dodecapeptide with Asn116 changed to Ser; also called Asn116^CLE9 to a Ser
Molecule B3 had a dissociation constant (Kd) in assay [24] of 7150 nM. In [25], the binding result is given as “binds”.

(Values after publication PMC8847575, “HSL1 and BAM1/2 impact epidermal cell development by sensing distinct signaling peptides” (Nature Communications, 2022).)
